The values below come from article PMC9095979, “Optimization of eIF4E-Binding Peptide Pep8 to Disrupt the RBM38-eIF4E Complex for Induction of p53 and Tumor Suppression” (Frontiers in Oncology, 2022).

For this assay, the target named is T1, eIF4E (purified, from pTXB1-eIF4E) (UniProt P06730 1-217).
T1 construct: also called purified eIF4E; source: pTXB1-eIF4E; protein expression and purification as previously described (12)
Put plainly: pull-down; competitive: GST-RBM38 on GST beads, 250 µg purified eIF4E and 10 µM peptide in lysis buffer (50 mM Tris pH 7.5, 150 mM NaCl, 0.1% Triton X-100), rocked overnight, washed 3x, western blot. Conditions: both partners purified.

T1 sequence (P06730 whole entry): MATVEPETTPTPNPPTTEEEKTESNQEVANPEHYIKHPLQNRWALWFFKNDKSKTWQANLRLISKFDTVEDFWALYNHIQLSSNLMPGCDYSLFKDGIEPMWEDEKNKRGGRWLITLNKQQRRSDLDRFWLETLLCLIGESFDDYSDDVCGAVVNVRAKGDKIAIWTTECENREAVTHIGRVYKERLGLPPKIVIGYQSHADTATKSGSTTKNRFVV

B1: Pep7 (peptide)
peptide: PSAASPV
notes: also called Pep7-PSAASPV; shortened 7-amino acid peptide; source: synthetic peptide (GenScript)
For B1, the binding result is recorded as “binds”.
